The text below walks through data of patent US12065466B2, “Methods and compositions for protein sequencing” (Quantum-Si Incorporated, priority 2020, dated 2024).

Residue numbers refer to the chain shown, from its start. Read-outs that look alike come from different tables or passages of the source.

Assay [1] relates to FITC labeled N-terminal LA peptide. In words: Stopped-flow association rate constant (kon), PS557 derivatives. The format is binding. As for the experimental part: Stopped-flow assays were performed to measure the association (kon) and dissociation (koff) rates for PS557, atClpS2-V1, and fusion proteins derived by C-terminal addition of protein shields. To measure the on-rate constant by stopped-flow, the binder was rapidly mixed with FITC labeled peptide, and the reaction was followed in real time. N-terminal LA peptide was used for PS557 derivatives and N-terminal FA peptide was used for atClpS2-V1 derivatives. In this assay, the fluorescence signal decreased due to quenching upon protein binding. The averaged traces obtained at multiple concentrations of binder were fitted with a decay equation to derive association rates (FIG. 37A, middle panel). A linear slope from the plot of association rates against different binder concentrations gave the kon rate constant (FIG. 37A, bottom panel).

In assay [2] the test system is labeled N-terminal LA peptide. Kind of assay: Stopped-flow dissociation rate (koff), PS557 derivatives. The format is binding. Particulars: excess unlabeled trap peptide. An excerpt: To measure the dissociation rate (koff) by stopped-flow, complexes of binder bound to labeled peptide substrate at an optimal concentration were rapidly mixed with excess unlabeled trap peptide. […] The averaged raw traces were fitted with an exponential equation to determine the koff (FIG. 37B, bottom panel).

Assay [3] concerns amino acid at a terminal position of a polypeptide. In words: Amino acid binding preference of recognition proteins (Tables 1 and 2). Particulars: Table 1, ClpS proteins; amino acid identity at a terminal position of a polypeptide; inferred from literature and/or demonstrated by the inventors. From the text:
It should be appreciated that these sequences and other examples described herein are meant to be non-limiting, and recognition molecules in accordance with the application can include any homologs, variants thereof, or fragments thereof minimally containing domains or subdomains responsible for peptide recognition.

In assay [4] the test system is peptides with different N-terminal amino acids, penultimate alanine. Kind of assay: Biolayer interferometry of multivalent amino acid binders. The format is binding. As for the experimental part: The amino acid binding profile of each Bis-atClpS2-V1 binder (PS609, PS610, and PS611) was evaluated by biolayer interferometry as described above. The monovalent atClpS2-V1 was run as a control. Measurements with each binder were carried out for the amino acids F, Y, and W, along with I, L, M, and V as negative controls. All peptides contained a penultimate alanine (A). Response curves for the tandem binders PS609, PS610, and PS611 are shown in FIGS. 35B, 35C, and 35D, respectively.
The multivalent binder PS612 is a polypeptide that contains tandem copies of two different ClpS protein monomers (atClpS2-V1 and PS372). The amino acid binding profile of PS612 was evaluated by biolayer interferometry as described above. The monovalent binders atClpS2-V1 and PS372 were separately run as controls.
The multivalent binder PS614 is a polypeptide that contains two copies of the ClpS binder PS372 oriented in tandem. The amino acid binding profile of PS614 was evaluated by biolayer interferometry as described above.
The multivalent binders PS637, PS638, and PS639 are polypeptides that each contain two copies of the ClpS binder PS557 oriented in tandem and separated by Linker 1, Linker 2, and Linker 3, respectively. The amino acid binding profiles of each binder was evaluated by biolayer interferometry as described above.
On the technique in general: In BLI a coated tip is dipped into the sample, and binding shifts an interference pattern.

Another assay deals with dye-labeled RL peptide. Kind of assay: Peptide-on-chip recognition assay for N-terminal arginine peptide. The assay is classed as binding. Here is the method:
Peptide-on-chip recognition assays for N-terminal arginine peptide were performed with PS621 and PS528. Both PS528 and PS621 recognized N-terminal R, and binding to dye-labeled RL peptide at the single-molecule level was confirmed in these recognition assays, with average pulse width of approximately 60 ms.

Assay [5] concerns amino acid at a terminal position of a polypeptide. Particulars: Table 2; amino acid identity at a terminal position (phosphotyrosine also internal); inferred from literature and/or demonstrated by the inventors; cited from earlier work.
In assay [6] the test system is immobilized peptides containing N-terminal R, K or H. In words: Biolayer interferometry of UBR-box domain homologs. The assay is classed as binding. To be noted: for binding range for RX dipeptides: 14 peptides RXGGGDDDFFK (SEQ ID NO: 241). As for the experimental part:
The amino acid binding properties of UBR-box domain homologs were evaluated by biolayer interferometry. Peptides containing an N-terminal arginine (R), followed by different amino acids in the penultimate position, were immobilized on a biolayer interferometry sensor surface, allowed to bind to UBR-box protein, and incubated in buffer to allow the UBR-box molecules to dissociate. […] FIG. 32C is a heatmap showing results measured for 24 UBR-box homologs against 14 polypeptides containing N-terminal R followed by different amino acids in the penultimate position.
UBR proteins bind to the basic N-terminal residues R, K, and H as part of the conserved N-end rule pathway. To identify high-affinity UBR proteins with properties favorable for use in sequencing, a diverse panel of uncharacterized UBR-box domain homologs from 44 species (PS501-PS544) was designed. UBR-box domain homologs were expressed, purified, and evaluated for binding to N-terminal amino acids by biolayer interferometry. Measurements were carried out at 30° C. for each protein for R, K and H binding. The amino-acid binding profile of each new homolog was first evaluated by biolayer interferometry using a single-point screening assay. All peptides in this screen contained a penultimate alanine (A) and consisted of the sequence XAKLDEESILKQK (SEQ ID NO: 238), where X is R, K, or H.
To evaluate the effect of penultimate amino acids on arginine binding, UBR box-domain homologs were evaluated for binding to 14 different peptides with N-terminal RX (peptide sequence: RXGGGDDDFFK (SEQ ID NO: 241)). The selected RX dipeptides are the 14 most frequently found in the human proteome.

A further assay concerns RA and KA peptides. Kind of assay: Fluorescence polarization binding titration of UBR-box domain candidates (KD). Particulars: RA peptide. Here is the method: The binding affinity of selected UBR-box domain candidates was then evaluated by measuring KD (dissociation constant) values for N-terminal R and K peptides. Assays were performed for RA and KA peptides at increasing concentration of UBR protein (FIG. 32G, top plots). KD values were determined from the binding titration curves.
Background: Polarisation of emitted light reports the rotation of a fluorescent probe.

Assay [7] has as its target N-terminal arginine peptide (alanine at the penultimate position). Kind of assay: Fluorescence polarization binding affinity of tandem recognizers, RA peptide. Here is the method:
Three different constructs were designed and expressed for each multivalent UBR-box binder: PS690, PS691, and PS692 (Bis-PS621 binders having Linker 1, Linker 2, and Linker 3, respectively); and PS693, PS694, and PS695 (Bis-PS528 binders having Linker 1, Linker 2, and Linker 3, respectively). Fluorescence polarization studies were performed to evaluate the binding affinity of each of the multivalent UBR-box binders, and the corresponding monomeric binders, for a peptide having an N-terminal arginine residue with an alanine residue at the penultimate position. The KD values obtained from these studies are reported below in Table 11.

Assay [8] relates to labeled peptide (XAKLDEESILKQK-FITC (SEQ ID NO: 238)); RA, KA, HA. Kind of assay: Single point fluorescence polarization assay of UBR-streptavidin complex. The assay is classed as binding. As for the experimental part:
Single point fluorescence polarization assays were then performed for selected candidates. These assays measured the interaction of labeled peptide (XAKLDEESILKQK-FITC (SEQ ID NO: 238)) with UBR-streptavidin complex in a format in which these molecules are free in solution. Measurements of polarization response (millipolarization, mP) and total intensity for RA, KA, and HA peptides were performed.

Assay [9] concerns the target N-terminal phenylalanine peptide (alanine at the penultimate position). In words: Fluorescence polarization binding affinity of tandem recognizers, FA peptide. As for the experimental part:
The multivalent binder PS651 was designed as a tandem fusion molecule expressed from a single coding sequence containing segments encoding three copies of atClpS2-V1 (Tris-atClpS2-V1) joined end-to-end by segments encoding a flexible peptide linker (Linker 2). Fluorescence polarization studies were performed with PS651, the Bis-atClpS2-V1 binders (PS609, PS610, PS611), and the monomeric binder atClpS2-V1, to determine the binding affinity of each for a peptide having an N-terminal phenylalanine residue with an alanine residue at the penultimate position. The KD values obtained from these studies are reported below in Table 9.

B1: PS557: PS372-homologous ClpS protein, SEQ ID NO: 71 (protein, listed as Planctomycetes bacterium)
chain: MPTAASATESAIEDTPAPARPEVDGRTKPKRQPRYHVVLWNDDDHTYQYVVVMLQSLFGHPPERGYRLAKEVDTQGRVIVLTTTREHAELKRDQIHAFGYDRLLARSKGSMKASIEAEE
With B1, the LA kon in assay [1] amounted to 1.8e+06 M⁻¹ s⁻¹. In addition, in assay [2], the LA koff stood at 0.22 s⁻¹. Besides, the “Binding Pref.” value in assay [3] is on record as “I, L, V”. The “N-terminal amino acids bound (biolayer interferometry)” value in [4] is “binds N-terminal I, L, and V”.

B2: PS528: UBR-box domain homolog, SEQ ID NO: 156 (protein, listed as Kluyveromyces lactis)
chain: MHSKFNHAGRICGAKFRVGEPIYRCKECSFDDTCVLCVNCFNPKDHVGHHVYTSICTEFNNGICDCGDKEAWNHELNCKGAED
Consider B2, for which, in the assay on dye-labeled RL peptide, the average pulse width entry is “approximately 60 ms”. In addition, the “Binding Pref.” value in assay [5] was “K, R, H”. The “binding range for RX dipeptides” value in assay [6] is given as “extensive binding range for RX dipeptides”. Also, in assay [6] (14 polypeptides containing N-terminal R), the “binding affinity to N-terminal R with different penultimate amino acids” value was “high binding affinity to R in the presence of a wide range of penultimate amino acids”. In assay [6] (30° C., XAKLDEESILKQK), the “binding to RA/KA/HA peptides (single-point screening)” value was “favorable binding trajectories to RA and KA peptides with notably high response for RA peptide”; the “dissociation trajectory and HA peptide binding” value is “slower dissociation trajectory and displayed binding to HA peptide”. In the assay on RA and KA peptides, the Kd – broadly, the concentration at which binding is half-saturated – is 460 nM. The Kd in assay [7] stood at 403 nM. In addition, the “polarization response with RA peptide” value in assay [8] is reported as “bind to RA peptides with strong responses”.

B3: PS621: UBR-box domain homolog, SEQ ID NO: 181 (protein, listed as Kluyveromyces marxianus)
chain: B2 chain with N6S, R17K, V47T, S54T, E75T, N77F, G80A, A81E, D83G
In the case of B3, the average pulse width entry with dye-labeled RL peptide is on record as “approximately 60 ms”. Further, the “Binding Pref.” value in assay [5] was “K, R, H”. Also, the “binding range for RX dipeptides” value in assay [6] is “extensive binding range for RX dipeptides”. For the same molecule, the “binding to RA/KA/HA peptides (single-point screening)” value in assay [6] (30° C., XAKLDEESILKQK) is “favorable binding characteristics with results that were similar to PS528”. Besides, in [8], the “polarization response with RA peptide” value is recorded as “bind to RA peptides with strong responses”.

B4: PS698 (protein)
chain: MPTAASATESAIEDTPAPARPEVDGRTKPKRQPRYHVVLWNDDDHTYQYVVVMLQSLFGHPPERGYRLAKEVDTQGRVIVLTTTREHAELKRDQIHAFGYDRLLARSKGSMKASIEAEEHHHHHHHHHHGGGSGGGSGGGSGLNDFFEAQKIEWHEGGGSGGGSGGGSGLNDFFEAQKIEWHEGSAGSAAGSGEFMDKDCEMKRTTLDSPLGKLELSGCEQGLHEIKLLGKGTSAADAVEVPAPAAVLGGPEPLMQATAWLNAYFHQPEAIEEFPVPALHHPVFQQESFTRQVLWKLLKVVKFGEVISYQQLAALAGNPAATAAVKTALSGNPVPILIPCHRVVSSSGAVGGYEGGLAVKEWLLAHEGHRLGKPGLG
In assay [1], B4 displayed an LA kon of 4e+06 M⁻¹ s⁻¹. In addition, in assay [2], the LA koff was 0.19 s⁻¹.

B5: PS609: single polypeptide with two tandem copies of atClpS2-V1 joined by Linker 1 (SEQ ID NO: 243) (protein)
chain: MSDSPVDLKPKPKVKPKLERPKLYKVMLLNDDYTPMSFVTVVLKAVFRMSEDTGRRVMMTAHRFGSAVVVVCERDIAETKAKEATDLGKEAGFPLMFTTEPEEGGGSGGGSGGGSGMSDSPVDLKPKPKVKPKLERPKLYKVMLLNDDYTPMSFVTVVLKAVFRMSEDTGRRVMMTAHRFGSAVVVVCERDIAETKAKEATDLGKEAGFPLMFTTEPEEGHHHHHHHHHHGGGSGGGSGGGSGLNDFFEAQKIEWHEGGGSGGGSGGGSGLNDFFEAQKIEWHE
Molecule B5 registered a dissociation constant Kd in assay [9] of 221 nM.
